Laboratory results taken from US20110112279A1 (published 2011).

Columns and labels:
[1] = molecular target: T1, human STOP-1 short form (L94-K243) with C-terminal His tag, baculovirus expressed (UniProt Q96CG8 94-243); assay: competitive ELISA
[2] = molecular target: T2, human STOP-1, full length, C-terminal 8xHis tag (h762HIP; M1-K243-His), expressed in CHO-psgb cells (UniProt Q96CG8 31-243); assay: competitive ELISA
[3] = molecular target: T1, human STOP-1 short form (L94-K243) with …; assay: competitive ELISA; S/S: coated short form, competed short form
[4] = molecular target: T2, human STOP-1, full length, C-terminal …; assay: competitive ELISA; F/F: coated full length, competed full length

T2 sequence (Q96CG8 other isoform, or with tags, fused parts or gaps): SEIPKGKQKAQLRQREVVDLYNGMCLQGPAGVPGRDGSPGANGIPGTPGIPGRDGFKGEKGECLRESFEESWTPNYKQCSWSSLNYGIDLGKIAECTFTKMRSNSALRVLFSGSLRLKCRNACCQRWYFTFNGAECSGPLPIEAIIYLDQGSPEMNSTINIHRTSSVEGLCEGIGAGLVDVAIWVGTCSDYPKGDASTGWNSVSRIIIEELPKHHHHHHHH
T1 sequence (Q96CG8 94-243): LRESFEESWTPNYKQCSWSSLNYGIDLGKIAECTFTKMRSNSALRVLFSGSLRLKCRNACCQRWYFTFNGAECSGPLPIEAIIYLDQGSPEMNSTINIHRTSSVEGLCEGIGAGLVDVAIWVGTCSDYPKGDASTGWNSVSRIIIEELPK

B1: S4 IgG (full-length human IgG1; LPG3-humankappaG6 and LPG4-humanHC-S4), expressed in CHO cells (antibody)
light: DIQMTQSPSSLSASVGDRVTITCRASQDVSTAVAWYQQKPGKAPKLLIYSASFLYSGVPSRFSGSGSGTDFTLTISSLQPEDFATYYCQQSYTTPPTFGQGTKVEIKRTVAAPSVFIFPPSDEQLKSGTASVVCLLNNFYPREAKVQWKVDNALQSGNSQESVTEQDSKDSTYSLSSTLTLSKADYEKHKVYACEVTHQGLSSPVTKSFNRGEC
heavy: not shown
- Kd [1]: 0.5 nM
- Kd [2]: 3 nM
- Kd [3]: 0.5 nM
- Kd [4]: 3.1 nM

B2: S7 IgG (full-length human IgG1; LPG3-humankappaG6 and LPG4-humanHC-S7), expressed in CHO cells (antibody, V domains shown)
VH: EVQLVESGGGLVQPGGSLRLSCAASGFTISGSDIHWVRQAPGKGLEWVGRISPYGGNTNYADSVKGRFTISADTSKNTAYLQMNSLRAEDTAVYYCARVGGLKLLFDYWGQGTLVTVSS
VL: DIQMTQSPSSLSASVGDRVTITCRASQDVSTAVAWYQQKPGKAPKLLIYSASFLYSGVPSRFSGSGSGTDFTLTISSLQPEDFATYYCQQSYTTPPTFGQGTKVEIKR
- Kd [1]: 7.3 nM
- Kd [2]: 41 nM
- Kd [3]: 7.3 nM
- Kd [4]: 41 nM

B3: S4 Fab (antibody)
chain 1: MKKNIAFLLASMFVFSIATNAYADIQMTQSPSSLSASVGDRVTITCRASQDVSTAVAWYQQKPGKAPKLLIYSASFLYSGVPSRFSGSGSGTDFTLTISSLQPEDFATYYCQQSYTTPPTFGQGTKVEIKRTVAAPSVFIFPPSDEQLKSGTASVVCLLNNFYPREAKVQWKVDNALQSGNSQESVTEQDSKDSTYSLSSTLTLSKADYEKHKVYACEVTHQGLSSPVTKSFNRGECGASSGMADPNRFRGKDLA
chain 2: MKKNIAFLLASMFVFSIATNAYAEVQLVESGGGLVQPGGSLRLSCAASGFTISGSWIHWVRQAPGKGLEWVAWIAPYSGATDYADSVKGRFTISADTSKNTAYLQMNSLRAEDTAVYYCAREGGLYWVFDYWGQGTLVTVSSASTKGPSVFPLAPSSKSTSGGTAALGCLVKDYFPEPVTVSWNSGALTSGVHTFPAVLQSSGLYSLSSVVTVPSSSLGTQTYICNVNHKPSNTKVDKKVEPKSCDKTHL
- Kd [1]: 1.9 nM
- Kd [2]: 13 nM
- Kd [4]: 13.4 nM
